Data set [1] deals with HeLa Kyoto. The experiment in a line: melting temperature (median over replicates), in situ; higher = more thermally stable.
Data set [2] relates to HeLa Kyoto. The experiment in a line: thermal stability score vs G1/S (z-score of summed log2 fold changes over temperatures); higher = more thermally stable than in G1/S.
For data set [3], the system named is HeLa Kyoto. Briefly: solubility change mitosis vs G1/S (difference of NP-40 vs SDS log2 ratios) (log2 ratio difference); higher = more soluble in mitosis.
In data set [4] the test system is HeLa Kyoto. Briefly: solubility in G1/S (NP-40 vs SDS abundance) (log2 ratio); higher = more soluble. To be noted: cell cycle stage: G1/S.
[5] abbreviates: cell cycle stage: early G1 (4.5 h after nocodazole release).
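Wherever melting temperature (median over replicates), in situ is given: HeLa Kyoto cells synchronized by double thymidine or nocodazole block, proteins quantified by TMT10plex mass spectrometry, three independent biological replicates.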
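Wherever solubility change mitosis vs G1/S (difference of NP-40 vs SDS log2 ratios) is given: synchronized HeLa Kyoto cells (double thymidine block for G1/S, nocodazole release for mitosis), protein amounts in NP-40 versus SDS lysates quantified by mass spectrometry, three biological replicates.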
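Wherever solubility in G1/S (NP-40 vs SDS abundance) is given: HeLa Kyoto cells arrested at G1/S by double thymidine block, proteins quantified by TMT10plex mass spectrometry in mild NP-40 versus SDS extracts, three biological replicates.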
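Wherever thermal stability score vs G1/S (z-score of summed log2 fold changes over temperatures) is given: synchronized HeLa Kyoto cells, proteins quantified by TMT10plex mass spectrometry, three biological replicates, mitosis taken 0.5 h after nocodazole release, G1/S directly after double thymidine block.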

In the case of “MTTSTLQKAIDLVTKATEEDKAKNYEEALRLYQHAVEYFLHAIKYEAHSDKAKESIRAKCVQYLDRAEKLKDYLRSKEKHGKKPVKENQSEGKGSDSDSEGDNPEKKKLQEQLMGAVVMEKPNIRWNDVAGLEGAKEALKEAVILPIKFPHLFTGKRTPWRGILLFGPPGTGKSYLAKAVATEANNSTFFSVSSSDLMSKWLGESEKLVKNLFELARQHKPSIIFIDEVDSLCGSRNENESEAARRIKTEFLVQMQGVGNNNDGTLVLGATNIPWVLDSAIRRRFEKRIYIPLPEEAARAQMFRLHLGSTPHNLTDANIHELARKTEGYSGADISIIVRDSLMQPVRKVQSATHFKKVCGPSRTNPSMMIDDLLTPCSPGDPGAMEMTWMDVPGDKLLEPVVCMSDMLRSLATTRPTVNADDLLKVKKFSEDFGQES [VPS4A]”, the melting temperature turned out to be 48.6 °C in data set [1] (cell cycle stage: G1/S) and 49.7 °C in data set [1] (cell cycle stage: mitosis). For the same sequence, the thermal stability score in data set [2] (setting [5]) was 1.11; in data set [2] (cell cycle stage: mitosis), 1.47. The “solubility change mitosis (log2)” value in data set [3] was -0.128. Further, the “solubility in G1/S (log2)” value in data set [4] stood at 0.393.
Take “MTVSGPGTPEPRPATPGASSVEQLRKEGNELFKCGDYGGALAAYTQALGLDATPQDQAVLHRNRAACHLKLEDYDKAETEASKAIEKDGGDVKALYRRSQALEKLGRLDQAVLDLQRCVSLEPKNKVFQEALRNIGGQIQEKVRYMSSTDAKVEQMFQILLDPEEKGTEKKQKASQNLVVLAREDAGAEKIFRSNGVQLLQRLLDMGETDLMLAALRTLVGICSEHQSRTVATLSILGTRRVVSILGVESQAVSLAACHLLQVMFDALKEGVKKGFRGKEGAIIVDPARELKVLISNLLDLLTEVGVSGQGRDNALTLLIKAVPRKSLKDPNNSLTLWVIDQGLKKILEVGGSLQDPPGELAVTANSRMSASILLSKLFDDLKCDAERENFHRLCENYIKSWFEGQGLAGKLRAIQTVSCLLQGPCDAGNRALELSGVMESVIALCASEQEEEQLVAVEALIHAAGKAKRASFITANGVSLLKDLYKCSEKDSIRIRALVGLCKLGSAGGTDFSMKQFAEGSTLKLAKQCRKWLCNDQIDAGTRRWAVEGLAYLTFDADVKEEFVEDAAALKALFQLSRLEERSVLFAVASALVNCTNSYDYEEPDPKMVELAKYAKQHVPEQHPKDKPSFVRARVKKLLAAGVVSAMVCMVKTESPVLTSSCRELLSRVFLALVEEVEDRGTVVAQGGGRALIPLALEGTDVGQTKAAQALAKLTITSNPEMTFPGERIYEVVRPLVSLLHLNCSGLQNFEALMALTNLAGISERLRQKILKEKAVPMIEGYMFEEHEMIRRAATECMCNLAMSKEVQDLFEAQGNDRLKLLVLYSGEDDELLQRAAAGGLAMLTSMRPTLCSRIPQVTTHWLEILQALLLSSNQELQHRGAVVVLNMVEASREIASTLMESEMMEILSVLAKGDHSPVTRAAAACLDKAVEYGLIQPNQDGE [UNC45A]”: the melting temperature in data set [1] (cell cycle stage: G1/S) is 48.6 °C; in data set [1] (cell cycle stage: mitosis), 48.8 °C. The thermal stability score in data set [2] (setting [5]) was 0.271; in data set [2] (cell cycle stage: mitosis), 1.37. Besides, the “solubility change mitosis (log2)” value in data set [3] was -0.111. Besides, the “solubility in G1/S (log2)” value in data set [4] worked out at 0.2.
For the sequence “MVAVLGGRGVLRLRLLLSALKPGIHVPRAGPAAAFGTSVTSAKVAVNGVQLHYQQTGEGDHAVLLLPGMLGSGETDFGPQLKNLNKKLFTVVAWDPRGYGHSRPPDRDFPADFFERDAKDAVDLMKALKFKKVSLLGWSDGGITALIAAAKYPSYIHKMVIWGANAYVTDEDSMIYEGIRDVSKWSERTRKPLEALYGYDYFARTCEKWVDGIRQFKHLPDGNICRHLLPRVQCPALIVHGEKDPLVPRFHADFIHKHVKGSRLHLMPEGKHNLHLRFADEFNKLAEDFLQ [BPHL]”, the melting temperature in data set [1] (cell cycle stage: G1/S) was 52.7 °C; in data set [1] (cell cycle stage: mitosis) it was 52.4 °C. Also, the values for the thermal stability score in data set [2] (setting [5]) and in data set [2] (cell cycle stage: mitosis) were 0.683 and 0.206, respectively. The “solubility change mitosis (log2)” value in data set [3] is -0.00389. Also, the “solubility in G1/S (log2)” value in data set [4] is 0.0569.
For “MVCGGFACSKNCLCALNLLYTLVSLLLIGIAAWGIGFGLISSLRVVGVVIAVGIFLFLIALVGLIGAVKHHQVLLFFYMIILLLVFIVQFSVSCACLALNQEQQGQLLEVGWNNTASARNDIQRNLNCCGFRSVNPNDTCLASCVKSDHSCSPCAPIIGEYAGEVLRFVGGIGLFFSFTEILGVWLTYRYRNQKDPRANPSAFL [TSPAN13]”, the melting temperature in data set [1] (cell cycle stage: G1/S) came to 57.7 °C; in data set [1] (cell cycle stage: mitosis), 57.6 °C. For the same sequence, the thermal stability score is -0.55 in data set [2] (setting [5]) and -1.07 in data set [2] (cell cycle stage: mitosis). Moreover, the “solubility change mitosis (log2)” value in data set [3] is -0.273. In addition, the “solubility in G1/S (log2)” value in data set [4] turned out to be 0.0697.
On to “MVDREQLVQKARLAEQAERYDDMAAAMKNVTELNEPLSNEERNLLSVAYKNVVGARRSSWRVISSIEQKTSADGNEKKIEMVRAYREKIEKELEAVCQDVLSLLDNYLIKNCSETQYESKVFYLKMKGDYYRYLAEVATGEKRATVVESSEKAYSEAHEISKEHMQPTHPIRLGLALNYSVFYYEIQNAPEQACHLAKTAFDDAIAELDTLNEDSYKDSTLIMQLLRDNLTLWTSDQQDDDGGEGNN [YWHAG]”, for which the figures for the melting temperature in data set [1] (cell cycle stage: G1/S) and in data set [1] (cell cycle stage: mitosis) were 55.1 °C and 54.8 °C, respectively. The thermal stability score in data set [2] (setting [5]) is -2.23; in data set [2] (cell cycle stage: mitosis), -4.24. The “solubility change mitosis (log2)” value in data set [3] came to 0.206. In data set [4], the “solubility in G1/S (log2)” value worked out at 0.35.

The values above are taken from the supplement of paper PMC5998384.
